Results taken from publication PMC9113893, “Carbon Material Hybrid Construction on an Aptasensor for Monitoring Surgical Tumors”.

Target: carcinoembryonic antigen (CEA) (human, UniProt P06731 35-685)
Assay: electrochemical aptasensor (interdigitated electrode, sandwich); immobilized aptamer; 0.5-1000 ng/mL CEA in PBS, or spiked in 1:100 human serum; LOD 0.5 ng/mL (not a Kd); PBS or 1:100 diluted human serum; graphene-modified IDE blocked with 1% BSA; pH, salt and temperature not stated
Settings: protein: commercial

Sequence of carcinoembryonic antigen (CEA) (P06731 35-685): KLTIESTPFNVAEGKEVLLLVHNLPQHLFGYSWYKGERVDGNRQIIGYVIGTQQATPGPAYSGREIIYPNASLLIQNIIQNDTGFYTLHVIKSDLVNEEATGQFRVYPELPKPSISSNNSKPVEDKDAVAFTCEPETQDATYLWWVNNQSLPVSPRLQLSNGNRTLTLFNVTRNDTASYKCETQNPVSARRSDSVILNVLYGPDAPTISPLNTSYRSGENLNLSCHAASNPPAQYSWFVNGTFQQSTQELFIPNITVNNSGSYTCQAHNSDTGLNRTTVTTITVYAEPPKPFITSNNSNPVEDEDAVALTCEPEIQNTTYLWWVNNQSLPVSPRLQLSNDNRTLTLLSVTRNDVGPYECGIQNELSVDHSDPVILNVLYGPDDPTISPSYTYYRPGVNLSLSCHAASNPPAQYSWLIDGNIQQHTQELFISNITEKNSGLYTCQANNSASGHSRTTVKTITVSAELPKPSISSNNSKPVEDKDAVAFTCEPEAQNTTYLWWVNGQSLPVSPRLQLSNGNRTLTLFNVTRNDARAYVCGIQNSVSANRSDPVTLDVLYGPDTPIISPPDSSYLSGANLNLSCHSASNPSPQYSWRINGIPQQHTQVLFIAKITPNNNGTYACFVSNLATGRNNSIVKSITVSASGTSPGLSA

TATCCAGCTTATTCAATT (ssDNA, 3'-NH2) [anti-CEA capture aptamer]
binding result: binds
